T1: type IV pili of the N. meningitidis 8013 pglAON* strain (SB pilin with the GATDH-Gal double sugar on S63) (Neisseria meningitidis 8013 (serogroup …, strain, GATDH with a second sugar (galactose in position 3) on serine 63))
T1 construct: numbers count on: the mature protein; also called GATDH-GLA; GATDH-GAL variant
T1 chain: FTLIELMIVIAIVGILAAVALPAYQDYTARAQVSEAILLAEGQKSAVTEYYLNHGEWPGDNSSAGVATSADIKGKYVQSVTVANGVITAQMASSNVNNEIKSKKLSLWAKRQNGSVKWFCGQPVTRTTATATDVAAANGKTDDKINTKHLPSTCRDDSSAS


Tests used:
[1] = biological target: type IV pili of N. meningitidis 8013, SB sequence type pilin PilE with GATDH on S63 and G3P on S69 (Neisseria meningitidis); assay: cryo-EM structure; purified pili 10 µg/ml with nanobody 50 µg/ml, vitrified at 4 °C; helical refinement
[2] = biological target: type IV pili of N. meningitidis 8013, SB sequence type pilin PilE with GATDH on S63 and G3P on S69 (Neisseria meningitidis)
[3] = biological target: T1, type IV pili of the N. meningitidis …; assay: immunostaining of cells or tissue; as a1 but nanobody 5 µg/ml and anti-His tag 17.5 µg/ml (experiments with C24_S112-114G, Fig. 7f and g); conditions: one partner purified

Binder	stoichiometry N [1]	inhibition of type IV pili-dependent bacterial auto-aggregation (blocks the pilus-pilus interaction, m1 with m1); indicated amounts of nanobody, Fig. 3c [2] [µg/mL]	binding result [3]
C24 nanobody (VHH) VHH: QLQLVESGGGLVQPGGSLRLSCASSGFRSDYYAIVWFRQAPGKEREGVSCISTSGKTTIYADSVKGRFTISRDNAKNTVYLQMNSLKPEDTAVYYCAADFRGSRLSDVCSYSSMDYWGKGTLATVSS	1	5	–
C24_S112-114G nanobody (VHH, as the chain of m8 (C24) with the two stated changes; also called C24 S112G S114G double mutant; source: E. coli BL21 (DE3)/pLysS (plasmid pET26b-C24 mutated), purified; not shown: His tag, C-terminal, kept) VHH: QLQLVESGGGLVQPGGSLRLSCASSGFRSDYYAIVWFRQAPGKEREGVSCISTSGKTTIYADSVKGRFTISRDNAKNTVYLQMNSLKPEDTAVYYCAADFRGSRLSDVCGYGSMDYWGKGTLATVSS	–	–	binds
F10 nanobody (VHH) VHH: QLQLVESGGGLVQPGGSLRLSCAASGFTLDQYAIGWFRQAPGKEREGVSCISSRGGATNYAHSVKGRFTISRDNAKNTVYLQMNSLKPEDTAVYYCAAGVYTIVTGTGPEDGMDYWGKGTLVTVSS	1	5	–
